Data as given in publication PMC11946224.

How the values were obtained:
[1] = target: recombinant cylindracin (C-terminal cysteine-rich domain of cylindracin) (Cyclocybe cylindracea); test: cross-linking; rCYL raised from 0.25 mg/mL (39 uM) to 2.0 mg/mL (312 uM) with BS(PEG)9 at 500 uM; SDS-PAGE, Coomassie staining
[2] = target: recombinant cylindracin (C-terminal cysteine-rich domain of cylindracin) (Cyclocybe cylindracea); test: cross-linking; rCYL at 0.25 mg/mL (39 uM) with 0.005-5 mM BS(PEG)9 in 20 mM sodium phosphate pH 7.2, 150 mM NaCl, 25 C, 30 min; SDS-PAGE, Coomassie staining
[3] = target: recombinant cylindracin (C-terminal cysteine-rich domain of cylindracin) (Cyclocybe cylindracea); test: cross-linking; rCYL raised from 0.25 mg/mL (39 uM) to 2.0 mg/mL (312 uM) with BS(PEG)9 at 500 uM; SDS-PAGE, Coomassie staining; remark: listed apart in the source

stoichiometry N [1]: 4
stoichiometry N [2]: 2
stoichiometry N [3]: 2
Substance: recombinant cylindracin (C-terminal cysteine-rich domain of cylindracin) (domain or fragment)
